# Data published in PMC6932780, “Comprehensive analysis of putative dihydroflavonol 4-reductase gene family in tea plant” (PLoS ONE, 2019).
# What was measured:
# Assay in all cases: purified protein
# Format in all cases: biochemical, Camellia sinensis
# Settings in all cases: 0.24 mM NADPH, citrate-phosphate buffer pH 7.2, 25°C
# purified protein [1] = substrate: O=C1c2c(O)cc(O)cc2O[C@H](c2ccc(O)c(O)c2)[C@H]1O
# purified protein [2] = substrate: O=C1c2c(O)cc(O)cc2O[C@H](c2cc(O)c(O)c(O)c2)[C@H]1O
# purified protein [3] = substrate: O=C1c2c(O)cc(O)cc2O[C@H](c2ccc(O)cc2)[C@H]1O
Protein,Km (purified protein [1]),Km (purified protein [2]),Km (purified protein [3])
"CsDFRa (Camellia sinensis) (protein, full-length ORF in pET-32a, E. coli Rosetta (DE3), Ni Sepharose purified, vector tag removal not mentioned) MKDSVASATASAPGTVCVTGAAGFIGSWLVMRLLERGYIVRATVRDPANLKKVKHLLDLPKADTNLTLWKADLNEEGSFDEAIEGCSGVFHVATPMDFESKDPENEVIKPTINGVLSIIRSCTKAKTVKRLVFTSSAGTVNVQEHQQPVFDENNWSDLDFINKKKMTGWMYFVSKTLAEKAAWEAAKENNIDFISIIPTLVVGPFIMPTFPPSLITALSPITRNEGHYSIIKQGQFVHLDDLCESHIFLYERPQAEGRYICSSHDATIHDLAKLMREKWPEYNVPTEFKGIDKDLPVVSFSSKKLIGMGFEFKYSLEDMFRGAIDTCREKGLLPHSFAENPVNGNKV",8.0 µM,43.0 µM,539.8 µM
"CsDFRa (Camellia sinensis; N141D) (protein, full-length ORF in pET-32a, E. coli Rosetta (DE3), Ni Sepharose purified, vector tag removal not mentioned) MKDSVASATASAPGTVCVTGAAGFIGSWLVMRLLERGYIVRATVRDPANLKKVKHLLDLPKADTNLTLWKADLNEEGSFDEAIEGCSGVFHVATPMDFESKDPENEVIKPTINGVLSIIRSCTKAKTVKRLVFTSSAGTVDVQEHQQPVFDENNWSDLDFINKKKMTGWMYFVSKTLAEKAAWEAAKENNIDFISIIPTLVVGPFIMPTFPPSLITALSPITRNEGHYSIIKQGQFVHLDDLCESHIFLYERPQAEGRYICSSHDATIHDLAKLMREKWPEYNVPTEFKGIDKDLPVVSFSSKKLIGMGFEFKYSLEDMFRGAIDTCREKGLLPHSFAENPVNGNKV",252.0 µM,37.2 µM,–
"CsDFRa (Camellia sinensis; N141A) (protein, full-length ORF in pET-32a, E. coli Rosetta (DE3), Ni Sepharose purified, vector tag removal not mentioned) MKDSVASATASAPGTVCVTGAAGFIGSWLVMRLLERGYIVRATVRDPANLKKVKHLLDLPKADTNLTLWKADLNEEGSFDEAIEGCSGVFHVATPMDFESKDPENEVIKPTINGVLSIIRSCTKAKTVKRLVFTSSAGTVAVQEHQQPVFDENNWSDLDFINKKKMTGWMYFVSKTLAEKAAWEAAKENNIDFISIIPTLVVGPFIMPTFPPSLITALSPITRNEGHYSIIKQGQFVHLDDLCESHIFLYERPQAEGRYICSSHDATIHDLAKLMREKWPEYNVPTEFKGIDKDLPVVSFSSKKLIGMGFEFKYSLEDMFRGAIDTCREKGLLPHSFAENPVNGNKV",88.5 µM,90.6 µM,398.1 µM
